Results reported in paper PMC9482650, “Quantitative fragmentomics allow affinity mapping of interactomes” (Nature Communications, 2022).
Each block holds one binder with its values, some of them ahead of it.

Experiments:
Assay in all cases: holdup assay
Design in all cases: key: below the threshold = too weak to quantify, mostly under pKd 3.1 to 4
[1] = molecular target: Inadl_1, Q8NI35
[2] = molecular target: T1, RADIL, Q96JH8
T1 sequence (Q96JH8 971-1071, limits assumed, looked up): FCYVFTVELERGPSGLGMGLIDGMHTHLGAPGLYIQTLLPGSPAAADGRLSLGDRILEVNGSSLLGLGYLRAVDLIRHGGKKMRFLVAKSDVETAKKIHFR

[3] = molecular target: HTRA1, Q92743
[4] = molecular target: GRIP2_6, Q9C0E4
[5] = molecular target: T2, DLG3_3, Q92796
T2 sequence (Q92796 374-475, limits assumed, looked up): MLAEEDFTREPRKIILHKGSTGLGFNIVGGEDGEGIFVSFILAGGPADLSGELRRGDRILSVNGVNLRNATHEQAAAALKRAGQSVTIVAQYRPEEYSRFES

[6] = molecular target: T3, SYNJ2BP, P57105
T3 sequence (P57105 8-110, limits assumed, looked up): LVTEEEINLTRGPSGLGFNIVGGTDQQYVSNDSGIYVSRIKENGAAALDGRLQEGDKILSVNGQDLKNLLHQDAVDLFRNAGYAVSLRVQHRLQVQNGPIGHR

[7] = molecular target: ARHGEF12, Q9NZN5-2
[8] = molecular target: Inadl_6, Q8NI35
[9] = molecular target: FRMPD2_3, Q68DX3
[10] = molecular target: T4, RHPN1, Q8TCX5
T4 sequence (Q8TCX5 508-602, limits assumed, looked up): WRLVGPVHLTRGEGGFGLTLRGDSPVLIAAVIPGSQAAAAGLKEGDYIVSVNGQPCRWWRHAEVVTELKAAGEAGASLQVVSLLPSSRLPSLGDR

[11] = molecular target: T5, MPDZ_5, O75970
T5 sequence (O75970 695-796, limits assumed, looked up): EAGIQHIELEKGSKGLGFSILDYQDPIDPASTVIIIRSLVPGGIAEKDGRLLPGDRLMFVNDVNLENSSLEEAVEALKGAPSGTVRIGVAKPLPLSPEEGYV

[12] = molecular target: SNX27, Q96L92
[13] = molecular target: T6, MPP7, Q5T2T1
T6 sequence (Q5T2T1 134-230, limits assumed, looked up): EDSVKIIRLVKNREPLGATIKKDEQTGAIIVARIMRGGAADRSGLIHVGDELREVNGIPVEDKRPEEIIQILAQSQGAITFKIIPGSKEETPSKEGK

[14] = molecular target: T7, ARHGEF11, O15085
T7 sequence (O15085 42-136, limits assumed, looked up): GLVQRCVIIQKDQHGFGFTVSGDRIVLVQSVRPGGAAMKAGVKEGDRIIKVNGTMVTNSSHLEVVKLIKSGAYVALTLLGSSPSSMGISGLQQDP

[15] = molecular target: T8, GRIP1_3, Q9Y3R0
T8 sequence (Q9Y3R0 247-346, limits assumed, looked up): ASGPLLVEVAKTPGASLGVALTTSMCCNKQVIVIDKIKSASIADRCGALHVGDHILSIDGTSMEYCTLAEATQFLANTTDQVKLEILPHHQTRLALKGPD

[16] = molecular target: NHERF4_2, Q86UT5
[17] = molecular target: T9, CARD11, Q9BXL7
T9 sequence (Q9BXL7 662-765, limits assumed, looked up): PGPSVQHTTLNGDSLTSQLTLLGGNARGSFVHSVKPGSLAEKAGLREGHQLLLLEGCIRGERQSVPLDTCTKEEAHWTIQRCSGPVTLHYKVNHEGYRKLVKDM

[18] = molecular target: T10, LRRC7, Q96NW7
T10 sequence (Q96NW7 1440-1537, limits assumed, looked up): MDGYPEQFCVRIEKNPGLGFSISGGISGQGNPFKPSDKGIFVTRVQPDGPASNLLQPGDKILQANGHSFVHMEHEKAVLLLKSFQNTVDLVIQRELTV

[19] = molecular target: GRIP2_5, Q9C0E4
[20] = molecular target: T11, SIPA1L2, Q9P2F8
T11 sequence (Q9P2F8 945-1036, limits assumed, looked up): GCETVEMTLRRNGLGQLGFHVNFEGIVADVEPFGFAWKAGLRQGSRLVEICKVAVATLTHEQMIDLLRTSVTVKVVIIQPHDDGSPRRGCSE

[21] = molecular target: MAGI2_2, Q86UL8
[22] = molecular target: T12, DLG3_2, Q92796
T12 sequence (Q92796 221-321, limits assumed, looked up): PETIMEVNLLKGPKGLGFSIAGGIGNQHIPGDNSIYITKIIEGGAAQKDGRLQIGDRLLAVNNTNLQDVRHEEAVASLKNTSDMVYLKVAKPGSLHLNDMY

[23] = molecular target: T13, DFNB31_1, Q9P202
T13 sequence (Q9P202 135-233, limits assumed, looked up): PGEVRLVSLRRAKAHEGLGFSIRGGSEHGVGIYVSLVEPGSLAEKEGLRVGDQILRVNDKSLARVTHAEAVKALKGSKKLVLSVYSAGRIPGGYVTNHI

[24] = molecular target: TJP1_3, Q07157
[25] = plain residues with an end cap or a label only (N-terminal biotin on a linker: ado-ado)
[26] = plain residues with an end cap or a label only (N-terminal biotin on a linker: ahx)

Sequence of Inadl_1, Q8NI35 (Q8NI35 113-229): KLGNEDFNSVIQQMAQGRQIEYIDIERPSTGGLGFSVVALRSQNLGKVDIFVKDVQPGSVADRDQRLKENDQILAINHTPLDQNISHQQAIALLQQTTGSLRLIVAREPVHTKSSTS
Sequence of MAGI2_2, Q86UL8 (Q86UL8 410-522): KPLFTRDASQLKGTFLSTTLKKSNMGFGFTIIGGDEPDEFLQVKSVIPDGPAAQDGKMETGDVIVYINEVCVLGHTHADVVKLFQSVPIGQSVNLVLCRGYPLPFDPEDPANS
Sequence of NHERF4_2, Q86UT5 (Q86UT5 220-308): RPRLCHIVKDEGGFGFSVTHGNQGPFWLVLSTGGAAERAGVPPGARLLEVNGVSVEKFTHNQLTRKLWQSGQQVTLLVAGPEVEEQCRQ
Sequence of GRIP2_5, Q9C0E4 (Q9C0E4 544-642): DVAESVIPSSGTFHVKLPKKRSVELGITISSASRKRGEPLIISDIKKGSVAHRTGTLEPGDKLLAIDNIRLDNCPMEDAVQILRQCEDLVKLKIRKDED
Sequence of FRMPD2_3, Q68DX3 (Q68DX3 1073-1166): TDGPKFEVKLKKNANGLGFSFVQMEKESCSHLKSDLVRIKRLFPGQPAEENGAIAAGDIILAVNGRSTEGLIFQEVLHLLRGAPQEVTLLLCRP
Sequence of GRIP2_6, Q9C0E4 (Q9C0E4 648-740): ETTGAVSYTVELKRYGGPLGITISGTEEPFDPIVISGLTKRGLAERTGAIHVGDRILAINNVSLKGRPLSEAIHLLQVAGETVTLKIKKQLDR
Sequence of ARHGEF12, Q9NZN5-2 (Q9NZN5 other isoform, or with tags, fused parts or gaps): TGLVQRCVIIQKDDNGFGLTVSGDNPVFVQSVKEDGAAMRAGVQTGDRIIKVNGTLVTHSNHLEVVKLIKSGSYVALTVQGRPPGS
Sequence of Inadl_6, Q8NI35 (Q8NI35 1058-1167): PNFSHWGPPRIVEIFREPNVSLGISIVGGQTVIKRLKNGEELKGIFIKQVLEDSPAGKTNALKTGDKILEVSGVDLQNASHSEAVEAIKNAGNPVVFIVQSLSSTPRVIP
Sequence of TJP1_3, Q07157 (Q07157 416-512): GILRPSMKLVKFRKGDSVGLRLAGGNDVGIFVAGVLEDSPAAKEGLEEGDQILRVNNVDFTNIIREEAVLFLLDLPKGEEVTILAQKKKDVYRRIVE
Sequence of HTRA1, Q92743 (Q92743 360-477): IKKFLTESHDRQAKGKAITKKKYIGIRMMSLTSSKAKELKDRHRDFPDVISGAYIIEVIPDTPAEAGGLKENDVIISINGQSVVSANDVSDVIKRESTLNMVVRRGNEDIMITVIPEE

pKd [1, 25]: below the threshold | pKd [2, 25]: 3.66 | pKd [3, 25]: below the threshold | pKd [4, 25]: below the threshold | pKd [5, 25]: below the threshold | pKd [6, 25]: below the threshold | pKd [7, 25]: 4.51 | pKd [8, 25]: below the threshold | pKd [9, 25]: below the threshold | pKd [10, 25]: below the threshold | pKd [11, 25]: below the threshold | pKd [12, 25]: 3.75 | pKd [13, 25]: below the threshold | pKd [14, 25]: 3.89 | pKd [15, 25]: below the threshold | pKd [16, 25]: below the threshold | pKd [17, 25]: below the threshold | pKd [18, 25]: below the threshold | pKd [19, 25]: below the threshold | pKd [20, 25]: below the threshold | pKd [21, 25]: 4.44 | pKd [22, 25]: below the threshold | pKd [23, 25]: below the threshold | pKd [24, 25]: below the threshold
B1: OR8G1, Q15617 (peptide)
chain: KKMLQRRTLL

pKd [1, 25]: below the threshold | pKd [2, 25]: below the threshold | pKd [3, 25]: below the threshold | pKd [4, 25]: below the threshold | pKd [5, 25]: below the threshold | pKd [6, 25]: 3.63 | pKd [7, 25]: 3.67 | pKd [8, 25]: below the threshold | pKd [9, 25]: below the threshold | pKd [10, 25]: 4.57 | pKd [11, 25]: below the threshold | pKd [12, 25]: 4.74 | pKd [13, 25]: 3.48 | pKd [14, 25]: below the threshold | pKd [15, 25]: below the threshold | pKd [16, 25]: below the threshold | pKd [17, 25]: below the threshold | pKd [18, 25]: below the threshold | pKd [19, 25]: below the threshold | pKd [20, 25]: below the threshold | pKd [21, 25]: below the threshold | pKd [22, 25]: 4.25 | pKd [23, 25]: 4.68 | pKd [24, 25]: below the threshold
B2: SLC16A7, O60669 (peptide)
chain: SVTSERETNI

pKd [1, 26]: below the threshold | pKd [2, 26]: below the threshold | pKd [3, 26]: below the threshold | pKd [4, 26]: below the threshold | pKd [5, 26]: below the threshold | pKd [6, 26]: below the threshold | pKd [7, 26]: 3.65 | pKd [8, 26]: below the threshold | pKd [9, 26]: below the threshold | pKd [10, 26]: 4.38 | pKd [11, 26]: below the threshold | pKd [12, 26]: 4.95 | pKd [13, 26]: below the threshold | pKd [14, 26]: below the threshold | pKd [15, 26]: below the threshold | pKd [16, 26]: below the threshold | pKd [17, 26]: below the threshold | pKd [18, 26]: below the threshold | pKd [19, 26]: below the threshold | pKd [20, 26]: below the threshold | pKd [21, 26]: below the threshold | pKd [22, 26]: 3.76 | pKd [23, 26]: 3.47 | pKd [24, 26]: below the threshold
B3: ACE2, Q9BYF1 (peptide)
chain: QNTDDVQTSF

pKd [1, 25]: below the threshold | pKd [2, 25]: below the threshold | pKd [3, 25]: below the threshold | pKd [4, 25]: below the threshold | pKd [5, 25]: below the threshold | pKd [6, 25]: below the threshold | pKd [7, 25]: below the threshold | pKd [8, 25]: below the threshold | pKd [9, 25]: below the threshold | pKd [10, 25]: below the threshold | pKd [11, 25]: below the threshold | pKd [12, 25]: below the threshold | pKd [13, 25]: below the threshold | pKd [14, 25]: 4.01 | pKd [15, 25]: below the threshold | pKd [16, 25]: below the threshold | pKd [17, 25]: below the threshold | pKd [18, 25]: below the threshold | pKd [19, 25]: below the threshold | pKd [20, 25]: below the threshold | pKd [21, 25]: below the threshold | pKd [22, 25]: below the threshold | pKd [23, 25]: below the threshold | pKd [24, 25]: below the threshold
B4: MKNK1, Q9BUB5 (peptide)
chain: GEDRSPPTAL

pKd [1, 25]: below the threshold | pKd [2, 25]: below the threshold | pKd [3, 25]: 3.9 | pKd [4, 25]: 4.68 | pKd [5, 25]: below the threshold | pKd [6, 25]: below the threshold | pKd [7, 25]: below the threshold | pKd [8, 25]: below the threshold | pKd [9, 25]: below the threshold | pKd [10, 25]: below the threshold | pKd [11, 25]: below the threshold | pKd [12, 25]: below the threshold | pKd [13, 25]: 4.27 | pKd [14, 25]: below the threshold | pKd [15, 25]: below the threshold | pKd [16, 25]: below the threshold | pKd [17, 25]: below the threshold | pKd [18, 25]: below the threshold | pKd [19, 25]: below the threshold | pKd [20, 25]: below the threshold | pKd [21, 25]: below the threshold | pKd [22, 25]: 4.09 | pKd [23, 25]: below the threshold | pKd [24, 25]: below the threshold
B5: PTTG2, Q9NZH5 (peptide)
chain: LPAVCYDIDI

pKd [1, 25]: below the threshold | pKd [2, 25]: below the threshold | pKd [3, 25]: 4.17 | pKd [4, 25]: 4.67 | pKd [5, 25]: below the threshold | pKd [6, 25]: 3.59 | pKd [7, 25]: 3.63 | pKd [8, 25]: below the threshold | pKd [9, 25]: below the threshold | pKd [10, 25]: below the threshold | pKd [11, 25]: below the threshold | pKd [12, 25]: below the threshold | pKd [13, 25]: below the threshold | pKd [14, 25]: 4.38 | pKd [15, 25]: below the threshold | pKd [16, 25]: below the threshold | pKd [17, 25]: below the threshold | pKd [18, 25]: below the threshold | pKd [19, 25]: below the threshold | pKd [20, 25]: below the threshold | pKd [21, 25]: 4.08 | pKd [22, 25]: 4.21 | pKd [23, 25]: below the threshold | pKd [24, 25]: below the threshold
B6: MYOT, Q9UBF9 (peptide)
chain: QSGLYESEEL
